According to patent US20250326826A1 (CENTRO DE INGENIER A GEN TICA Y BIOTECNOLOG A, published 2025):
Each block holds one binder with its values, some of them ahead of it.

How the values were obtained:
[1] = biological target: T1, GST-hVEGF121 (human, UniProt P15692-9 27-147); test: ELISA, coated GST-hVEGF121
T1 construct: plate coating of the VEGF ELISAs; also called human VEGF; not shown: glutathione S-transferase (GST) fusion partner
T1 sequence (looked up): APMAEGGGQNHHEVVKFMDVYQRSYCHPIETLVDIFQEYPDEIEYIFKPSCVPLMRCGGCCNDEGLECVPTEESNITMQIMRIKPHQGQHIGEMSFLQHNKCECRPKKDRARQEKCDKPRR
Experimental: (§1) The 96-well plates were coated with 100 μL/well of a solution of GST-hVEGF121, GST-mVEGF120, or GST at a concentration of 20 μg/mL, or with a solution of VEGFKDR- at a concentration of 10 μg/mL, or hFGF-2 or mFGF-2 at a concentration of 5 μg/mL in 1×PBS for 16 hours at 4° C. After the plates were blocked with PBS-5% skim milk for one hour, 1:2 serial dilutions of the purified VHHs were added, starting at 2 μg/mL in PBS-0.5% skim milk. The plates were incubated for 1 hour at 37° C. and after several washes, the monoclonal antibody 9E10, specific for c-myc, was added. After one hour of incubation at 25° C. the plates were washed thoroughly. The binding of the fragment to the antigen in the solid phase was detected by the peroxidase activity using 100 μL/well of TMB. The reaction was stopped with 50 μL/well of stop solution, and absorbance values at 450 nm were determined in a microtiter plate reader.
(§2) The main characteristic of an antibody and its derived fragments is their recognition of the antigen, which determines their specificity and affinity. Specific binding to VEGF was evaluated as described in the section “ELISA for VHHs recognition of their target antigen” (Example 1). […] Nb-V1 also recognized a mutated variant of VEGF121 in the ELISA system where, in the so-called 80's loop, amino acids R82, K84 and H86 are replaced by E82, E84 and E86. […]

[2] = biological target: VEGF (soluble stimulus added to cell cultures); test: cell-based or functional assay
[3] = biological target: T1, GST-hVEGF121; test: ELISA, coated GST-hVEGF
Experimental: as §1

[4] = biological target: T1, GST-hVEGF121; test: ELISA, coated GST-hVEGF121, detection with anti-c-myc 9E10
Experimental: as §1, §2

[5] = biological target: bFGF (soluble stimulus added to cell cultures); test: cell-based or functional assay
[6] = biological target: VEGF (soluble stimulus added to cell cultures); test: cell-based or functional assay; remark: listed apart in the source
[7] = biological target: Human VEGF (dendritic cell assay) (human, UniProt P15692-4 27-191, limits assumed); test: cell-based or functional assay
[8] = biological target: T2, Recombinant human bFGF (human, UniProt P09038 143-288, limits assumed); test: ELISA, coated antigen
T2 construct: Bought (Sigma); also called hFGF-2; human basic fibroblast growth factor
Experimental: (§3) After one hour of incubation at 25° C. the plates were washed thoroughly. The binding of the fragment to the antigen in the solid phase was detected by the peroxidase activity using 100 μL/well of TMB. The reaction was stopped with 50 μL/well of stop solution, and absorbance values at 450 nm were determined in a microtiter plate reader.
(§4) The main characteristic of an antibody and its derived fragments is their recognition of the antigen, which determines their specificity and affinity. Specific binding to VEGF was evaluated as described in the section “ELISA for VHHs recognition of their target antigen” (Example 1). […] Nb-V1 also recognized a mutated variant of VEGF121 in the ELISA system where, in the so-called 80's loop, amino acids R82, K84 and H86 are replaced by E82, E84 and E86. It shares this property with CIGB166a, but differentiates it from Bevacizumab.
(§5) Specific binding to bFGF was evaluated as described in the bFGF recognition ELISAs of the Example 1.

[9] = biological target: T3, CHO-VEGF (hVEGF121 produced in the CHO cell line) (human, UniProt P15692-9 27-147); test: competition ELISA, coated CHO hVEGF121, competitor biotinylated Bevacizumab
T3 construct: any tag is not described
T3 sequence (looked up): T1 sequence (looked up)
Experimental: (§6) Their displacement from their binding to VEGF could be an indication of the potentiality of the new polypeptides to mediate the desired effects in vivo. The ability of anti-VEGF VHH to compete with Bevacizumab antibody and CIGB166a antibody fragment for binding to its ligand was assessed by a variation of the solid phase ligand competition ELISA as described. 96-well plates (NUNC, Germany) were coated with 1 μg/mL hVEGF121, produced in the CHO cell line. Serial dilutions of purified VHHs were added, from 15,000 nM to 1,200 nM.
(§7) Biotinylated Bevacizumab or biotinylated-CIGB166a were then added, diluted in blocking solution to a final concentration of 2.3 ng/mL and 14.3 ng/ml, respectively. To detect the binding of biotinylated antibodies, streptavidin conjugated to HRP was added. The wells incubated with Biotinylated Bevacizumab or biotinylated-CIGB166a, without the addition of the antibody fragments, were taken as reference of maximum binding in the absence of competitor. In this assay, the Fc-VEGFR2 receptor chimera was used as a positive control. The percentage of inhibition of the binding of Bevacizumab, CIGB166a or VEGFR2 to its ligand was calculated as described above in the Example 1.

[10] = biological target: T3, CHO-VEGF (hVEGF121 produced in the CHO …); test: competition ELISA, coated CHO hVEGF121, competitor biotinylated CIGB166a
Experimental: as §6, §7

[11] = biological target: T4, GST-mVEGF120 (mouse, UniProt Q00731-3 27-146); test: ELISA, coated GST-mVEGF120
T4 construct: Produced in E. coli; also called mouse VEGF; mouse growth factor; not shown: glutathione S-transferase (GST) fusion partner
T4 sequence (looked up): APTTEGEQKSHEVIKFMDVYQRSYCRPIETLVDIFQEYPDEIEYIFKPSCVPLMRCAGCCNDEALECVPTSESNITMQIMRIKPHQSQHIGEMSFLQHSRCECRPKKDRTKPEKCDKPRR
Experimental: as §1, §2

[12] = biological target: T1, GST-hVEGF121; test: competition ELISA, coated GST-hVEGF, competitor Fc-VEGFR2
Experimental: (§8) The ability of VHHs to hinder receptors for binding to their ligand was assessed by ELISA, for which 96-well plates (NUNC, USA) were coated with GST-hVEGF or bFGF and blocked as described in the previous section. Serial 1:2 dilutions of the purified VHHs, from […] to […], were added and the plates and incubated for 1 h at 37° C. In this step, some wells were left where only PBS-milk was added. […] After 45 min incubation at 37° C., plates were washed with PBS-0.05% Tween. To detect receptor binding, HRP-conjugated anti-human IgG antibody was added, diluted 1:5000 in PBS-0.5% milk. After incubation for 1 h at 37° C., the plates were washed with PBS-Tween, and TMB was added. The reaction was stopped after 10 min. Wells incubated with the receptors without the addition of the antibody fragments were taken as reference for maximum binding in the absence of competitor. In this assay, in the case of inhibition of the VEGF/VEGFR axis, the CIGB166a antibody fragment was used as a positive control, and an anti-FGF polyclonal antibody was used for the FGF/FGFR axis. The percentage of inhibition of receptor binding to its ligand was calculated as follows: […]
The biological effect of VEGF is a consequence of its binding to two fundamental receptors (VEGFR1 and VEGFR2), so for a polypeptide that binds to VEGF to be effective in the therapeutic setting, it must block these interactions (Shibuya, Cell Structure and Function, 2001: 26: 25-35). The ability of Nb-V1 to compete with receptors 1 and 2 for binding to its ligand (VEGF) was assessed by solid phase ligand competition ELISA, as described above.

[13] = biological target: T2, Recombinant human bFGF; test: ELISA, coated bFGF
Experimental: as §3, with “The plates were incubated for 1 hour at 37° C. and after several washes, the monoclonal antibody 9E10, specific for c-myc, was added. After” for “After”
SEQ ID NO: 18 and SEQ ID NO: 19, and the bivalent Nb-VV6 and Nb-FF2, with sequences identified as SEQ ID NO: 20 and SEQ ID NO: 21, were expressed and purified as described in the Example 1. In all cases, the purity and identity of the proteins were verified by SDS-PAGE 12% and anti-polyhistidine Western Blot. […] The experimental mass of the polypeptides and the arrangement of the disulfide bridges were checked by ESI/MS-MS. […] The biological activity of the polypeptides was evaluated by ELISA for recognition of the VEGF and bFGF antigens, and by their ability to displace VEGF and bFGF binding to their respective VEGFR2 and FGFR1 receptors. […] In agreement with the increase in recognition, a decrease in the KD of the fragments was observed, calculated according to the methodology described by Beatty et al (Beatty J D, Beatty B G, Vlahos W G. J Immunol Methods. 1987 Jun. 26;100(1-2):173-9).

[14] = biological target: T2, Recombinant human bFGF; test: ELISA, coated human bFGF
Experimental: as §1
SEQ ID NO: 18 and SEQ ID NO: 19, and the bivalent Nb-VV6 and Nb-FF2, with sequences identified as SEQ ID NO: 20 and SEQ ID NO: 21, were expressed and purified as described in the Example 1. In all cases, the purity and identity of the proteins were verified by SDS-PAGE 12% and anti-polyhistidine Western Blot. […] The experimental mass of the polypeptides and the arrangement of the disulfide bridges were checked by ESI/MS-MS. The experimental and theoretical mass, for each polypeptide coincided, with errors less than 0.0015% in all cases, and the formation of intramolecular bridges between C22-C101 and C168-C247 was verified. […] The biological activity of the polypeptides was evaluated by ELISA for recognition of the VEGF and bFGF antigens, and by their ability to displace VEGF and bFGF binding to their respective VEGFR2 and FGFR1 receptors. […] Similarly, it was shown that the ability to displace the binding of antigens by their receptors was not affected.

[15] = biological target: T2, Recombinant human bFGF; test: competition ELISA, coated bFGF, competitor Fc-FGFR1
Experimental: as §8

[16] = biological target: T5, Mouse bFGF (mouse, UniProt P15655 10-154, limits assumed); test: ELISA, coated mouse bFGF
T5 construct: Bought (SinoBiological); also called mFGF-2
Experimental: as §1
(§9) Specific binding to bFGF was evaluated as described in the bFGF recognition ELISAs of the Example 1. […] As in the case of Nb-V1, no recognition of GST or VEGF proteins was observed, thus reinforcing the evidence of the specificity of the binding of the Nb-F3 fragment to its antigen.

[17] = biological target: T2, Recombinant human bFGF; test: ELISA, coated human bFGF; remark: listed apart in the source
Experimental: as §1, §9

[18] = biological target: T1, GST-hVEGF121; test: ELISA, coated antigen
Experimental: as §3, §4, §5

T2 sequence (P09038 143-288 limits assumed): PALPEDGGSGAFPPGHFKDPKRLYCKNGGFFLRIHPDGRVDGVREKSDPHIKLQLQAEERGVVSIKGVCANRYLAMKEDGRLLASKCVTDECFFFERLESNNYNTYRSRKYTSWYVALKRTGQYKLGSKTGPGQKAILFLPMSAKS
VEGF (soluble stimulus added to cell cultures), sequence (P15692 whole entry): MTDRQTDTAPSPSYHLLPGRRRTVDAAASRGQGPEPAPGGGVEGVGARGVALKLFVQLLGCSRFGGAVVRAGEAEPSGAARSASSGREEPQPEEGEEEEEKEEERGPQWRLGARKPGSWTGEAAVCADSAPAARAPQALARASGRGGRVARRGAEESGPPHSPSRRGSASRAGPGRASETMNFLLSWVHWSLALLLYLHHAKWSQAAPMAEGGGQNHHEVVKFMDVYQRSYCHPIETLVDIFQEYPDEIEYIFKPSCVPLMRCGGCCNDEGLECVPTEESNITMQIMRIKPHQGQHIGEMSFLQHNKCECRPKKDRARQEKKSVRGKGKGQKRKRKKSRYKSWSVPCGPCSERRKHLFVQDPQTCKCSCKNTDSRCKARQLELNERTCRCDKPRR
T5 sequence (P15655 10-154 limits assumed): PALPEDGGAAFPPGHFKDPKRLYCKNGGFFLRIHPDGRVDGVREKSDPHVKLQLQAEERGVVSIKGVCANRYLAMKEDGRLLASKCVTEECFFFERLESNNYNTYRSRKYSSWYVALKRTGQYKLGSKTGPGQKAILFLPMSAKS

fold lower EC50 than Nb-E7 [1]: 3 fold | PD1 expression (%) in CD8+ cells treated with VEGF, VHH 1 µg/mL [2]: 64% | PD1 expression (%) in CD8+ cells treated with VEGF, VHH 5 µg/mL [2]: 58% | PD1 expression (%) in CD8+ cells treated with VEGF, VHH 10 µg/mL [2]: 38% | EC50 [3]: 4.45 nM | EC50 [4]: 4.73 nM | IC50, proliferation of HDMEC cells +bFGF (10 ng/ml) [5]: > 6000 nM | IC50, proliferation of HDMEC cells +VEGF (5 ng/ml) [6]: 116 nM | CD86 (MFI) on dendritic cells +VEGF +LPS, VHH 1 µg/mL [7]: 1560 MFI | CD86 (MFI) on dendritic cells +VEGF +LPS, VHH 5 µg/mL [7]: 3000 MFI | CD86 (MFI) on dendritic cells +VEGF +LPS, VHH 10 µg/mL [7]: 17200 MFI | MHCII (MFI) on dendritic cells +VEGF +LPS, VHH 1 µg/mL [7]: 4700 MFI | MHCII (MFI) on dendritic cells +VEGF +LPS, VHH 5 µg/mL [7]: 5200 MFI | MHCII (MFI) on dendritic cells +VEGF +LPS, VHH 10 µg/mL [7]: 17000 MFI | binding result [8]: no binding | IC50 [9]: 931 nM | IC50 [10]: 67.5 nM | EC50 [11]: 4.08 nM | IC50 [12]: 28.6 nM
B1: Nb-V1 (VHH)
VHH: QVQLVESGGGLVQPGGSLRLSCAASGNSAEDRLYNSYTWFRQAPGQGLEAVAAISSHFSAGLTYYADSVKGRFTISRDNSKNTLYLQMNSLRAEDTAVYYCEITSHASHNDAWSTPRTVWGQGTLVTVSS
notes: carries the C-terminal c-myc tracer peptide and histidine tag; also called VHH Nb-V1

fold decrease of EC50 against Nb-F3 [13]: 2 fold | IC50, proliferation of HDMEC cells +bFGF (10 ng/ml) [5]: 50 nM | IC50, proliferation of HDMEC cells +VEGF (5 ng/ml) [6]: > 6000 nM | EC50 [14]: 5.86 nM | IC50 [15]: 53.5 nM
B2: Nb-FF2 (VHH)
chain: QVQLVESGGGLVQPGGSLRLSCAASGTEDGRLLTLGGSWFRQAPGQGLEAVAAIGAGDRGGATYYADSVKGRFTISRDNSKNTLYLQMNSLRAEDTAVYYCTALYERQPQLAATKVARKWGQGTLVTVSSAHHSEDPSSKAPKAPAQVQLVESGGGLVQPGGSLRLSCAASGTEDGRLLTLGGSWFRQAPGQGLEAVAAIGAGDRGGATYYADSVKGRFTISRDNSKNTLYLQMNSLRAEDTAVYYCTALYERQPQLAATKVARKWGQGTLVTVSSAAAGSEQKLISEEDLNSHHHHHH
notes: Bivalent monospecific tandem VHH for bFGF; with c-myc and histidine tag

EC50 [16]: 11.5 nM | fold increase in recognition against Nb-A5 [17]: 5 fold | IC50, proliferation of HDMEC cells +bFGF (10 ng/ml) [5]: 121 nM | IC50, proliferation of HDMEC cells +VEGF (5 ng/ml) [6]: > 6000 nM | EC50 [14]: 11.3 nM | binding result [18]: no binding | IC50 [15]: 134 nM
B3: Nb-F3 (VHH)
VHH: QVQLVESGGGLVQPGGSLRLSCAASGTEDGRLLTLGGSWFRQAPGQGLEAVAAIGAGDRGGATYYADSVKGRFTISRDNSKNTLYLQMNSLRAEDTAVYYCTALYERQPQLAATKVARKWGQGTLVTVSS
notes: carries the C-terminal c-myc tracer peptide and histidine tag; also called VHH Nb-F3
